According to patent US20170283457A1 (YEDA RESEARCH AND DEVELOPMENT, published 2017):
Blank lines part the entries; values can stand above or below the binder they belong to.

B3: Importin7 (receptor, UniProt O95373 1-1038, looked up)
chain: MDPNTIIEALRGTMDPALREAAERQLNEAHKSLNFVSTLLQITMSEQLDLPVRQAGVIYLKNMITQYWPDRETAPGDISPYTIPEEDRHCIRENIVEAIIHSPELIRVQLTTCIHHIIKHDYPSRWTAIVDKIGFYLQSDNSACWLGILLCLYQLVKNYEYKKPEERSPLVAAMQHFLPVLKDRFIQLLSDQSDQSVLIQKQIFKIFYALVQYTLPLELINQQNLTEWIEILKTVVNRDVPNETLQVEEDDRPELPWWKCKKWALHILARLFERYGSPGNVSKEYNEFAEVFLKAFAVGVQQVLLKVLYQYKEKQYMAPRVLQQTLNYINQGVSHALTWKNLKPHIQGIIQDVIFPLMCYTDADEELWQEDPYEYIRMKFDVFEDFISPTTAAQTLLFTACSKRKEVLQKTMGFCYQILTEPNADPRKKDGALHMIGSLAEILLKKKIYKDQMEYMLQNHVFPLFSSELGYMRARACWVLHYFCEVKFKSDQNLQTALELTRRCLIDDREMPVKVEAAIALQVLISNQEKAKEYITPFIRPVMQALLHIIRETENDDLTNVIQKMICEYSEEVTPIAVEMTQHLAMTFNQVIQTGPDEEGSDDKAVTAMGILNTIDTLLSVVEDHKEITQQLEGICLQVIGTVLQQHVLEFYEEIFSLAHSLTCQQVSPQMWQLLPLVFEVFQQDGFDYFTDMMPLLHNYVTVDTDTLLSDTKYLEMIYSMCKKVLTGVAGEDAECHAAKLLEVIILQCKGRGIDQCIPLFVEAALERLTREVKTSELRTMCLQVAIAALYYNPHLLLNTLENLRFPNNVEPVTNHFITQWLNDVDCFLGLHDRKMCVLGLCALIDMEQIPQVLNQVSGQILPAFILLFNGLKRAYACHAEHENDSDDDDEAEDDDETEELGSDEDDIDEDGQEYLEILAKQAGEDGDDEDWEEDDAEETALEGYSTIIDDEDNPVDEYQIFKAIFQTIQNRNPVWYQALTHGLNEEQRKQLQDIATLADQRRAAHESKMIEKHGGYKFSAPVVPSSFNFGGPAPGMN
notes: Endogenous protein; also called Imp7; RANBP7

Columns and labels:
Importin7 [1] = target: B3; experiment: in vitro interaction: GST-MAPK with Imp IPed from stimulated HeLa cells, Western blot
Experimental: (§1) FIGS. 3A-3B illustrate that JNK1/2 and p38α/β directly interact with either Imp7 or Imp9 but not with Imp3. (A) In vitro interaction of JNK1/2 and p38α/β with Imp3/7/9. Purified Imp3/7/9 were prepared by IP as follows: HeLa cells were grown to 70% confluence, serum starved, and then were either stimulated with Anisomycin (Anis 0.5 μg/ml, 15 min), TPA (250 nM, 15 min) or left untreated (NT). Imp3/7/9 were then IPed from the cell's extracts and extensively washed, twice with RIPA buffer and once with 0.5M LiCl. The indicated GST-MAPKs were prepared from bacteria as described under Materials and methods. To examine association, 500 ng of each GST-MAPK were incubated with 20 μl of the indicated IPed Imps in PBS (2 hrs, 4° C., with rotation). The beads were then washed with washing buffer containing 150 mM NaCl, and interacting MAPKs were detected using Western blot analysis with the indicated Abs. (B) Imp3 is not required for Imp7/9 interactions with JNK1/2 and p38α/β. HeLa cells were treated with Si RNAs of Imp3 according to the manufacturer instructions. […] Cell extracts were then subjected to Co-IP with anti Imp7 or Imp9, the interacting MAPKs were detected by Western blot with the indicated Abs. Amount of IPed Imps was detected by the indicated Abs.

Importin9 [2] = target: T1, Importin9 (UniProt Q96P70 2-1041); experiment: as above
T1 construct: Endogenous protein; also called Imp9; IMB5
Experimental: as §1

Importin7 [3] = target: B3; experiment: Co-IP with anti GFP Abs, transfected HeLa cells
Experimental: (§2) FIGS. 10A-10B illustrate that endogenous and overexpressed JNK1/2 and p38α/β CoIP with Imp3, 7 and 9. (A) A Co-IP screen to detect the importins interacting with JNK1/2 and p38α/β in MCF7 cells. MCF7 cells were grown on slides to 70% confluence, serums starved and then were either stimulated with Anisomycin (Anis 0.5 μg/ml, 15 min), TPA (250 nM, 15 min) or left untreated (NT). Cells extracts were then subjected to Co-IP with anti JNK1, JNK2, p38α, or p38β, and rabbit IgG as a negative control (Control). The interacting Imps or the IPed MAPKs were detected by Western blot with the indicated Imps or MAPK Abs. (B) Interaction of overexpressed MAPKs in HeLa cells. HeLa cells were transfected with either JNK2-GFP (wt-JNK2), p38ββ-GFP (wt-p38β) or GFP alone. Cells were serum starved, and then treated with Anisomycin (Anis 0.5 μg/ml, 15 min), TPA (250 nM, 15 min). Cells extracts were then subjected to a CoIP with anti GFP Abs. The interacting Imps and the loading extracts were detected using Western blot analysis with the indicated (left) Abs. The blots were developed with either NBT/BCIP or ECL. Arrows indicate interacting Imps.

Importin9 [4] = target: T1, Importin9; experiment: Co-IP with anti GFP Abs, transfected HeLa cells
Experimental: as §2

Importin9 [5] = target: T1, Importin9; experiment: PLA, resting HeLa cells
Experimental: FIGS. 5A-5D illustrate that Imp3 interacts with Imp7/9-MAPK dimer in a phospho-dependent manner (A) Detecting heterodimerization of Imp3/7/9 using PLA. HeLa cells were grown on slides to 70% confluence, serum starved, and stimulated with Anisomycin (Anis, 0.5 μg/ml 15 min). Thereafter, the cells were fixed and subjected to a PLA, using the Abs indicated on top. The nuclei were detected using DAPI, and slides were visualized using a fluorescent microscope. (B) Quantification of the intensity of the signal was performed using ImageJ analysis tool. Data shown represents mean±S.E. The significance of stimulated vs NT was p<0.0005. (C) Detecting Imp3/7/9 interaction by CoIP. Serum-starved HeLa cells (0.1% FBS, 16 hrs) were treated with Anisomycin (Anis 0.5 μg/ml) or TPA (250 nM) for 15 min. Cell extracts were then subjected to a Co-IP with the Abs indicated on right. […] The beads were then washed with a washing buffer containing 150 mM NaCl, and interacting Imps were detected using Western blot analysis with the indicated Abs.
In order to examine this hypothesis, and establish a complex formation between endogenous Imp3/7/9, the present inventors monitored these possible interactions by PLA. No interaction between any of the examined Importins was detected in resting HeLa cells (FIGS. 5A, 5B). […]

T1 sequence (Q96P70 2-1041 limits assumed): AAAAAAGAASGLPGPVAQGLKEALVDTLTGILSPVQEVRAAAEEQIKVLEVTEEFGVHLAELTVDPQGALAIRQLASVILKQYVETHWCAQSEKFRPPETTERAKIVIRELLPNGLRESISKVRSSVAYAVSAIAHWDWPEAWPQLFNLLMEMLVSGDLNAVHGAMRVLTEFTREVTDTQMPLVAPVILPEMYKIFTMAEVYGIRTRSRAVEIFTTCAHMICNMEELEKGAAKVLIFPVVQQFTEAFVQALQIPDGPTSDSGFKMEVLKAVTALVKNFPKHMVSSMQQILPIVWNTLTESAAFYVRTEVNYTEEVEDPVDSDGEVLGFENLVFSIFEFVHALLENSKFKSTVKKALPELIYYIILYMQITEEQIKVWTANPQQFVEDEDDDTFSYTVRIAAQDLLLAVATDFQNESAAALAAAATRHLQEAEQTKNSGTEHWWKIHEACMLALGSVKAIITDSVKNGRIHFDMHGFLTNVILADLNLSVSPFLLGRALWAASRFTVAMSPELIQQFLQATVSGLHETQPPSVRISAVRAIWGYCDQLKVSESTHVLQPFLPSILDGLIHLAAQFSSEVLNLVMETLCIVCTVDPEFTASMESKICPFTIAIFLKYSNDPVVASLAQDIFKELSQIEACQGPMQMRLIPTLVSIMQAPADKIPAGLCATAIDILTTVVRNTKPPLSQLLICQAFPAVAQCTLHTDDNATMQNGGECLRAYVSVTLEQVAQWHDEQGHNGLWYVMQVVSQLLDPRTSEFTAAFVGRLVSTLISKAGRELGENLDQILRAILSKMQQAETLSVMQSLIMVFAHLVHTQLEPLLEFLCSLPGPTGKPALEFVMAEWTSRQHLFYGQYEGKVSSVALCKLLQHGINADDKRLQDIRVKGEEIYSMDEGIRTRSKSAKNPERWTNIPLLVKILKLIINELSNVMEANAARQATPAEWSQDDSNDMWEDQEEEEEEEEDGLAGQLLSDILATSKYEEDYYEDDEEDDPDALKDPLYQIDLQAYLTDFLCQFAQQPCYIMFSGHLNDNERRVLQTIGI

binding result (Importin7 [1]): binds | binding result (Importin9 [2]): binds
B1: GST-p38β (enzyme, UniProt Q15759 1-364, looked up)
chain: MSGPRAGFYRQELNKTVWEVPQRLQGLRPVGSGAYGSVCSAYDARLRQKVAVKKLSRPFQSLIHARRTYRELRLLKHLKHENVIGLLDVFTPATSIEDFSEVYLVTTLMGADLNNIVKCQALSDEHVQFLVYQLLRGLKYIHSAGIIHRDLKPSNVAVNEDCELRILDFGLARQADEEMTGYVATRWYRAPEIMLNWMHYNQTVDIWSVGCIMAELLQGKALFPGSDYIDQLKRIMEVVGTPSPEVLAKISSEHARTYIQSLPPMPQKDLSSIFRGANPLAIDLLGRMLVLDSDQRVSAAEALAHAYFSQYHDPEDEPEAEPYDESVEAKERTLEEWKELTYQEVLSFKPPEPPKPPGSLEIEQ
notes: Made in bacteria; also called GST-p38α/β; GST-MAPK; not shown: glutathione S-transferase tag of the pGEX-2T vector (GE healthcare)

binding result (Importin7 [3]): binds | binding result (Importin9 [4]): binds
B2: p38β-GFP (enzyme, UniProt Q15759 1-364, looked up)
chain: MSGPRAGFYRQELNKTVWEVPQRLQGLRPVGSGAYGSVCSAYDARLRQKVAVKKLSRPFQSLIHARRTYRELRLLKHLKHENVIGLLDVFTPATSIEDFSEVYLVTTLMGADLNNIVKCQALSDEHVQFLVYQLLRGLKYIHSAGIIHRDLKPSNVAVNEDCELRILDFGLARQADEEMTGYVATRWYRAPEIMLNWMHYNQTVDIWSVGCIMAELLQGKALFPGSDYIDQLKRIMEVVGTPSPEVLAKISSEHARTYIQSLPPMPQKDLSSIFRGANPLAIDLLGRMLVLDSDQRVSAAEALAHAYFSQYHDPEDEPEAEPYDESVEAKERTLEEWKELTYQEVLSFKPPEPPKPPGSLEIEQ
notes: Overexpressed in HeLa cells; also called wt-p38β; GFP-p38β; not shown: GFP of the pEGFP-C1 vector (Clontech)

Binder: B3
binding result (Importin9 [5]): no binding
